Results as given in the nanobody polyreactivity screen of Harvey et al. (2022).

Experiment: yeast display, Sf9 membrane polyspecificity reagent, FACS + sequencing; frameworks hold sequencing errors
How it was run: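 Nanobodies from a synthetic yeast display library (Saccharomyces cerevisiae BJ5465), induced 36–48 hours with galactose, were stained 1 hour at 4 °C with 10% biotinylated, detergent-solubilized Sf9 membrane reagent, enriched on streptavidin microbeads, then FACS-sorted. Anti-HA (expression) and streptavidin (reagent binding) fluorescence set low and high (top ~1%) gates. Polyreactivity labels come from the gate of origin. Genes were colony-PCR amplified, MiSeq 2 × 250 sequenced and filtered by CDR length.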
For “QVQLVESGGGLVQAGGSLRLSCAASGSTFYTNAMGWYRQAPGKERELVAAISASVGSTYYADSVKGRFTISRDNAKNTVYLQMNSLKPEDTAVYNCAADVWASRRYDYWGQGTQVTLSS”, the “polyreactivity (PSR sort gate)” value was “low polyreactivity”.
With “QVQLVESGGGLVQAGGSLRLSCAASGSTFYTNAMGWYRQAPGKERELVASISSGGRTYYADSVKGRFTISRDNAKNTVYLQMNSLKPEDTAVYYCAKRAVLARGDYWGQGTQVTVSS” the “polyreactivity (PSR sort gate)” value was “low polyreactivity”.
In the case of “QVQLVESGGGLVQAGGSLRLSCAASGSTFYTNAMGWYRQAPGKERELVASITDGGDSTHYADSVKGRFTISRDNAKNTVYLQMNSLKPEDTAVYYCAVDYQYFQEYDSWGQGTQVTVSS”, the “polyreactivity (PSR sort gate)” value is reported as “low polyreactivity”.
In the case of “QVQLVESGGGLVQAGGSLRLSCAASGSTFYTNAMGWYRQAPGKERELVAVITSSGVRTYYADSVKGRFTISRDNAKKTVYFQMNSLKPEDTAVYYCAAEARVGDHFQILDYWGQGTQVTVSS”, the “polyreactivity (PSR sort gate)” value is reported as “high polyreactivity”.
With “QVQLVESGGGLVQAGGSLRLSCAASGSTFYTNAMGWYRQAPGQERELVAAISASVGSTYYADSVKGRFTISRDYAKNSVYLQMNSLKPEDTAVYYCAADVWASRRYDYWGQGTQVTVSS” the “polyreactivity (PSR sort gate)” value was “low polyreactivity”.
In the case of “QVQLVESGGGLVQAGGSLRLSCAASGSTFYTYAMGWYRKAPGKERELDAAISWSGGSTYYADSVKGRFTISRDNAKNTVYLQMNSLKPEDTAVYYCAADRPYAGRYWKGYHSALYDYWGQGTQVTVSS”, the “polyreactivity (PSR sort gate)” value is reported as “low polyreactivity”.
For “QVQLVESGGGLVQAGGSLRLSCAASGSTFYTYAMGWYRQAPGKERELVAAISNRGGSTRYADSVKGRFTISRDNAKNTVYLQMNSLKPEDTAVYYCAARVTQTGYYWGQGTQVTVSS”, the “polyreactivity (PSR sort gate)” value was “high polyreactivity”.
For “QVQLVESGGGLVQAGGSLRLSCAASGSTFYTYAMGWYRQAPGKERELVAAISWSGGSTYYADSVKGRFTISRDIAKNTVYLQMNSLKPEDTAVYYCAKKQVTTDVSSETFVLEMDYWGQGTQVTVSS”, the “polyreactivity (PSR sort gate)” value was “low polyreactivity”.
For “QVQLVESGGGLVQAGGSLRLSCAASGSTFYTYAMGWYRQATGKERELVAAISWSGGSTYYADSVKGRFTISRDNAKNTVYLQMNSLKPEDPAVYYCAADRPYAGRYWKGYHSALYDYWGQGSQVTVSS”, the “polyreactivity (PSR sort gate)” value was “low polyreactivity”.
For “QVQLVESGGGLVQAGGSLRLSCAASGSTFYTYTMGWYRQAPGKERELVAAISTRGGSTYYADSVKGRFTISRDNAKNTVYLQMNCLKPEDTAVYYCAAVYRRGSGYDYWGQGNQVTVSS”, the “polyreactivity (PSR sort gate)” value was “high polyreactivity”.
With “QVQLVESGGGLVQAGGSLRLSCAASGSTFYVNAMGWYRQAPGKERELVAAISSGGSTYYADSVKGRFTISRDNAKNTVYLQMNSLKPEDTAVYYCAAASPWGSDYDYWGQGTQVTVSS” the “polyreactivity (PSR sort gate)” value was “low polyreactivity”.
For “QVQLVESGGGLVQAGGSLRLSCAASGSTFYVNDMGWYRQAPGKERELVAAITWGVGDTYYADSVKGRFTISRDNAKNTVYLQMNSLKPEDTAVYYCAADTSYYYAYTQMEYWGQGTQVTVSS”, the “polyreactivity (PSR sort gate)” value was “low polyreactivity”.
With “QVQLVESGGGLVQAGGSLRLSCAASGSTFYVNTMGGSRQAPGKERELVAAISGSGGSTYYADSVKGRFTISRDNAKNTVYLQMNCLKPEETAVYYCAAYGWRLWYRFNYWGQGTQVTVSS” the “polyreactivity (PSR sort gate)” value was “high polyreactivity”.
With “QVQLVESGGGLVQAGGSLRLSCAASGSTFYVNTMGWYRQAPGKERELVAAINWRGGSTYYADSVKWRFTISRDNAKNTVYLQMNSLKPEDTAVYYCAAYGFYRYVTAYIYDMDYWGQGTQVSVSS” the “polyreactivity (PSR sort gate)” value was “low polyreactivity”.
With “QVQLVESGGGLVQAGGSLRLSCAASGSTFYVYAMGWYRQAPRKERELVAAIDGSTGSTYYADSVKGRFTISRDNAKNTVYLQMNSLKPEDTAVYYCNADYYYEVDSWGQGTQVTVSS” the “polyreactivity (PSR sort gate)” value was “low polyreactivity”.
With “QVQLVESGGGLVQAGGSLRLSCAASGSTFYWYTMGWYRQAPGKERELVATITSSGGRTYYADSVKGRFTISRDNAKNTVYLQMNSLKPEDTAVYYCAAYRRNSRWELDYWGQGTQVTVSS” the “polyreactivity (PSR sort gate)” value was “high polyreactivity”.
For “QVQLVESGGGLVQAGGSLRLSCAASGSTFYYNAMGWYRQAPGKEREFVAAISSRGGSTYYADSVKGRFTISRDNAKTTVYLQMNSLKPEDTAVYYCAAKYRHRYDWGQGTQVTVSS”, the “polyreactivity (PSR sort gate)” value was “high polyreactivity”.
For “QVQLVESGGGLVQAGGSLRLSCAASGSTFYYNAMGWYRQAPGKEREFVAGITSSGAGTYYADSVKGRFTISRDNAKNTVYLQMNSLKPEDTAVYYCAAVYRWEGRTYRYGYWGQGTQVTVSS”, the “polyreactivity (PSR sort gate)” value was “high polyreactivity”.
With “QVQLVESGGGLVQAGGSLRLSCAASGSTFYYNAMGWYRQAPGKERELDARISRSGGSTYADSVKGRFTISRDNAKNTVYLQMNSLKPEDTAVYYCNADAYGTPEFTSYAVRYDYWGQGTQVTVSS” the “polyreactivity (PSR sort gate)” value was “low polyreactivity”.
In the case of “QVQLVESGGGLVQAGGSLRLSCAASGSTFYYNAMGWYRQAPGKERELVAAIRTSGGRTYYADSVKGRFTISRDNAKNTVYLQMNSLKPEDTAVYYCAADGTAVHYTYDYWGQGTQVTVSS”, the “polyreactivity (PSR sort gate)” value is reported as “low polyreactivity”.
For “QVQLVESGGGLVQAGGSLRLSCAASGSTFYYNAMGWYRQAPGKERELVAAITWGGGSTYYADSVKGRFTISRDNAKNTVYLQMNSLKPEDTAVYYCNAEDYVWYYYYYDIYDYWGQGTQVTVSS”, the “polyreactivity (PSR sort gate)” value was “high polyreactivity”.
In the case of “QVQLVESGGGLVQAGGSLRLSCAASGSTFYYNAMGWYRQAPGKERELVATISGGGTTYYADSVKGRFTISRDNAKNSVYLQMISLKPEDTAVYYCATDWHIEYLYRKVHGRKHDYWGQGTQVTVSS”, the “polyreactivity (PSR sort gate)” value is reported as “low polyreactivity”.
In the case of “QVQLVESGGGLVQAGGSLRLSCAASGSTFYYNDMGWYRQAPGKERELVAAIRTSGSTNYADSVKGRFTISRDNAKNTVYLQMNSLKPEDTAVYYCNAVVRHWFQGWYGRGDDYWGQGTQVTVSS”, the “polyreactivity (PSR sort gate)” value is reported as “low polyreactivity”.
In the case of “QVQLVESGGGLVQAGGSLRLSCAASGSTFYYNVMGWYRQAPGKERELVAAITLSGGSTYADSVKGRFTISRDNAKNTVYLQMNSLKPEDTAVYYCAKKGRYGRWGYKFDYWGQGTQVTVSS”, the “polyreactivity (PSR sort gate)” value is reported as “low polyreactivity”.
In the case of “QVQLVESGGGLVQAGGSLRLSCAASGSTFYYYAMGWYRQAPGKERELVAAITNVTSTYYADSVKGRFTISRDNEKNTVYLMMNSLKPEDTAVYYCAAPDHCSEVTYDYWGQGTQVCVSS”, the “polyreactivity (PSR sort gate)” value is reported as “low polyreactivity”.
In the case of “QVQLVESGGGLVQAGGSLRLSCAASGSTFYYYSMGWNRQAPGKERELVAAISYRGGTTYYADSVKGRFTISRDNAKNTVYLQMNSLKPEDTAVYYCAAGVSWYRPGSYTGGYWGQGTQVTVSS”, the “polyreactivity (PSR sort gate)” value is reported as “high polyreactivity”.
In the case of “QVQLVESGGGLVQAGGSLRLSCAASGSTGLNAMGWYRQAPGKERELVAAITWSGGSTYYADSVKGRFTISRDNAKNTVYLQMNSLKPVDTAVYYCAAQYTWYKSRYGYWGQGTQVTVSS”, the “polyreactivity (PSR sort gate)” value is reported as “high polyreactivity”.
For “QVQLVESGGGLVQAGGSLRLSCAASGSTHVYAMGWYRQAPGKERELVAAISLNTGSTYYADSVKGRFTISRDNAKNTVYLQMNSLKPEDTAVYRLNYWGQGTQVTVSS”, the “polyreactivity (PSR sort gate)” value was “low polyreactivity”.
For “QVQLVESGGGLVQAGGSLRLSCAASGSTIDYYAMGWYRQAPGKERELVAAISWSGGSTYYADSVKGRFTISRDNAKNTVYLQMYSLKTEDTAVYYCAAYSAFYTGSYNGWSDYDYWGQGTQVTVSS”, the “polyreactivity (PSR sort gate)” value was “low polyreactivity”.
For “QVQLVESGGGLVQAGGSLRLSCAASGSTIEDYAMGWYRQAPGKERELVAAITSGDSTNYADSVKGRFTISRDNAKNTVYLQMISLKPEDTAVYYCFDLSNRYAVRYDYWGQGTQVTVSS”, the “polyreactivity (PSR sort gate)” value was “high polyreactivity”.
With “QVQLVESGGGLVQAGGSLRLSCAASGSTIEDYAMGWYRQAPGKERELVAAITSGDSTNYADSVKGRFTISRDNAKNTVYLQMNSLKPEDTAVYYCAARLRYSFWYWDDYWGQGTQVTVSS” the “polyreactivity (PSR sort gate)” value was “high polyreactivity”.
With “QVQLVESGGGLVQAGGSLRLSCAASGSTIFLYDMGWYRQAPGKERELVAAITISGGSTYYADSVKGRFTISRDNAKNTVYLQMNSLKPEDTAVYDCNADYQWYLGGYDYWGQGTQVTVSS” the “polyreactivity (PSR sort gate)” value was “high polyreactivity”.
For “QVQLVESGGGLVQAGGSLRLSCAASGSTIFSYAMGWYRQAPGKERELVAAITYRSSRTYYADSVKGRFTISRDNAKNTVYLQMNSLKPEDTAVYYCAAGYFSYRRYDYWGQGTQVTVSS”, the “polyreactivity (PSR sort gate)” value was “high polyreactivity”.
For “QVQLVESGGGLVQAGGSLRLSCAASGSTIGDNAMGWYRQAPGIERELGASMSWSGASTYYADSVKGRFTISRDNAKNTVYLQMNCLKPDDTAVYYCGVYYSYYSHLYHMLFYYWGQGTQVTVSS”, the “polyreactivity (PSR sort gate)” value was “low polyreactivity”.
With “QVQLVESGGGLVQAGGSLRLSCAASGSTILAYALGWYRPAPGKERELVAAIRRGGTSTYSADSLKGRFTISRDKAKKTVYLQINSLQPEDTAVYYCNKAYITKRGVSGSNDYWGQGTQVTVSS” the “polyreactivity (PSR sort gate)” value was “low polyreactivity”.
With “QVQLVESGGGLVQAGGSLRLSCAASGSTILQNAMGWYRQAPGKERELVAAISRSGGSTYYADSVKGRFTISRDNAKNTVYLQMNSLKPEDTAVYYCARRYWPGSAYWIYDYWGQGTQVTVSS” the “polyreactivity (PSR sort gate)” value was “high polyreactivity”.
In the case of “QVQLVESGGGLVQAGGSLRLSCAASGSTIPSNAMGWYRQAPGKERELVASITYTDGTTRYADSVKGRFTISRDNAKNTVYLQMNSLKPEDTAVYYCNAVYYREGMDYWGQGTQVTVSS”, the “polyreactivity (PSR sort gate)” value is reported as “low polyreactivity”.
With “QVQLVESGGGLVQAGGSLRLSCAASGSTIPSYALGWYRPAPGKERELGASITYSDGTTRYADSVKARFTISRDNAKNTVYLQMNSLKPEDTAVYYCNAVYYREGMDYWGQGTQVTVSS” the “polyreactivity (PSR sort gate)” value was “low polyreactivity”.
In the case of “QVQLVESGGGLVQAGGSLRLSCAASGSTIPSYAMGWYRQAPGKERELVASITYSDGTTRYADSVKGRFTISRDNAMNPVYFQMNSLKPEDSAVYYCNAVYYREGMDYWGQGTQVTVSS”, the “polyreactivity (PSR sort gate)” value is reported as “low polyreactivity”.
For “QVQLVESGGGLVQAGGSLRLSCAASGSTIPTNAMGWYSQAPGKERELVAAITSTGSTYADSVKGRFTISRDNAKNTDYLQMNSLKPEDTAVYYCAADTQWTTPYDYWGQGTPVTVSS”, the “polyreactivity (PSR sort gate)” value was “low polyreactivity”.
With “QVQLVESGGGLVQAGGSLRLSCAASGSTIRDYAMGWYRQAPGKERELVAVIDNSGGRTYYADSVKGRFTISRDNAKNTVYLQMNSLKAEDTAVYYCNTRRIAQYGYWGQGTQVTVSS” the “polyreactivity (PSR sort gate)” value was “high polyreactivity”.
